Measured values from a protein production outcome set (Wang et al. 2014).

Experiment: label from the status in PepcDB records

MPEVEDMPSIALHSVMASPNAEYVRWKAHGDFISQLNYYDSMKAVISSSNHEPTALVIGFTVGATDVKEKLNEIRNVGKNVMMGSSSASLALAKRQAECNRTVFRVHKGVKAFSFCRKKNLLATGGLDRIVRVWNPYLPGKPTGVLRGHMAPVMYVHVASEENKVFSVSADNTVKIWDLETHSCCCTVSSKASGIKGELTACLYLPGPRALCVATGTLALFHLKAGSVPEPHLLRSHQEPVVCCRYNPAFRQVVSCCEASVVKVWDLETGRWVSEFIGNAGITCLAFDSSGRRLVTGGRDGDLKIWSYNNGHCLHTLQHDENQNEVCDCTYMEVNRNGCVIAVGWDRRINVYFDIPRDFHHFRKPQPHWQDDLNHGHKEDILCVAQCPPFLLATSSYDGEIIVWNVISGHMYCKLNTPSPMDPREGPDRSVSRLTFLKTRLTKLDSTAASLISNGPGGSVSFWKLFSGSGLIANFTPAREKAQVSGIVVTSGDTVAYLADQHGFIYVYDIQEYGLWGAELQPPNSTHSWEVESQKHSFLKTFDVSEGAGKGLSSSLDCTVRLCSKDGAYIGTFGQNRPWDVYTPDSWGHPRVPLEILTDPQSMPTHLVLETDVPAGCSGGRQEQGHMTEEKVLFETEKTHNPPSPEGPVVEVEVKADKSQWSAFSHDRLLLSSKTLMQDKRLLSARRKPCWKVPELKWPSIYQALQCHELDFVSALREKPDLSVTGFDLLPDYRFPRGPTEYRQCSAELLFRSLPHAAHISSVPQAPAKLWGHKQN
protein production: failed

MNADGWLADTRSSYDTVAVSYADQLRGALAGTPYLRAALELFAGMIHTAGGGPVADVGCGPGHVTAHLHGLGVDAFGIDLSPAMIDVARRDHPDLRFEVGSMTDLNLADASVTALLAFWSLIHVPDDAIPAVFGHFRRVVRPGGPLLLGFHIGDESRLKTEGYGGHPMKVHVHHRQPVQVTAWLRDAGFTVEAQWLLGLDGHIPGAVLFAHRQSLEHHHHHH
protein production: failed

DMKQLAEDVKLQLYKLLEIPDPDKNWATLAQKLGLGILNNAFRLSPAPSKTLMDNYEVSGGTVRELVEALRQMGYTEAIEVIQAASS
protein production: not failed

MRHDIRAPETFRRYCLPSRPRGCPLKTYVIGDVHGRADLLKALPSHIEENDPNGCGYRVIFLGDIIDRGPDSMKAMEMVVRELNQNPESRLILGNHEEFMLLFLDRPDKREIVFDHWMRNGGLAAAASYGLNVGGRYGRIEEAHESLLELLHRRQNHIDAMRRAASLINDGANVFVHAGLRPGVPFEQQTTKDLRTIRSGFLDNDFDFGAMVVHGHTVTSSGLPEIRRSRIALDTGAGAGGCLSMMMVDDDGARTFFQSGSAREVVKVELSQRPDEP
protein production: failed

MSLANRIRLHIWGDYACFTRPEMKVERVSYDVITPSAARGILSAIHWKPAINWVIDKIYVLKPIRFESVRRNELGAKISESKVSGAMKRKSVADLYTVIEDDRQQRAATVLKDVAYVIEAHAVMTSKAGVDENTTKHIEMFKRRALKGQCFQQPCMGVREFPAHFALIDDNDPLPLSQLSESEFNRDLGWMLHDIDFEHGNTPHFFRAELKNGVIDVPPFYAEEVKREGHHHHHH
protein production: not failed

MKLVVCSESDTAGQNIKDNLLTFADFEEKDVGEFKLYLSDEFYIAETKERLIYADHIDEKLAKYIDFEEILFASRHSSKDGRKIFTVHVSGNVGTADFGGKPYSLAKPSPQTMKNYVLALRERLDRKPEFEFTMEVTHHGPSEISKPSAFYEIGSTEEEWKDREAAEVVAEAMLDAIRAEKMDWNVAVGVGGTHYAPRQTEIMLTTTFTFGHNFAKYTFEHLTAEFLVKAVKLSEAEYIIIDEKSVNSAVKKIVNEAAEVAGVEVLKSKKVKKDFRLV
protein production: not failed

MRPLARLRGRRVVPQRSAGELDAMAAAGAVVAAALRAIRAAAAPGTSSLSLDEIAESVIRESGATPSFLGYHGYPASICASINDRVVHGIPSTAEVLAPGDLVSIDCGAVLDGWHGDAAITFGVGALSDADEALSEATRESLQAGIAAMVVGNRLTDVAHAIETGTRAAELRYGRSFGIVAGYGGHGIGRQMHMDPFLPNEGAPGRGPLLAAGSVLAIEPMLTLGTTKTVVLDDKWTVTTADGSRAAHWEHTVAVTDDGPRILTLG
protein production: failed

MELASPISSSFLEAFSRLSLERYSFLSIATSTIPSAAFLTTGFSSFNTSRAKLNASSMISGSLVLTTISFSTLRAETFFFSDFPFRMFLIQENIILATLIILAPRVATPSAAYSFIGSGLFSTIPINISESLVLISSGNSMKVTMAFIVSTACKTTVSSLSSNSLIRSGITSFTSSIPSSFFIASFFIMYRVPFFIKGSFSCNAFLSIDILFSLSSSTIWRAFLTLHPFKFSIYSS
protein production: failed

MFIPAAQSAYRTLRKTQPRVRLNAIFKNGYSSKVEYKPIRSVLVANRGEIAIRVFRACTELGIKSVAVYSEQDKMHMHRQKADESYIVGKGLPPVEAYLNIPELIRVCKENDVDAVHPGYGFLSERSDFAQAVIDAGLRFIGPSPEVVQKMGDKVAARVAAIEAGVPIVPGTDGPVTTKEEALEFCKKHGLPVIFKAAYGGGGRGMRVVRKMEDVEESFQRASSEAKAAFGNGAMFIEKFIERPRHIEVQLLGDKAGNVVHLYERDCSVQRRHQKVVEIAPAPRLPIEIRDKMTEAAVRLARHVGYENAGTVEFLCDESGNFYFIEVNARLQVEHTVTEEITGIDLVQSQIRVAEGMTLPELGYTQDKIVPRGYAIQCRVTTEDPANDFQPNTGRLEVFRSGEGMGIRLDSASAYAGAIISPYYDSLLVKVISHASDLQSSASKMNRALREFRIRGVKTNIPFLLNVLENQKFLHGVLDTYFIDEHPQLFKFKPSLNRAQKLLNYMGEVLVNGPQTPLATTLKPALVSPHVPEVPLDLSPEAIEREERGEAKVTEPPKGLREVLVCEGPEAFAKEVRNRKELLLMDTTFRDAHQSLLATRVRSHDLLKISPYVTHKFNNLYSLENWGGATFDVALRFLHECPWERLEEMRKRIPNIPFQMLLRGANAVGYTSYPDNVVYKFCELAVQTGMDIFRVFDSLNYLPNLILGMEAAGKAGGVVEAAISYTGDVSDPKRTKYDLKYYTNLADELVKAGTHVLCIKDMAGLLKPESARLLITAIRDKHPDIPIHIHTHDTSGAGVASMLACANAGADVVDVAVDSMSGMTSQPSMGAVVASLQGTPLDTNLDLRTVSEYSAYWEQTRTLYAPFECTTTMRSGNADVYLNEIPGGQYTNLQFQAFSLGLGDFFEDVKKAYREANLLLGDIIKVTPSSKVVGDLAQFMVQNDLTADQVLERAEELSFPKSVVEYLQGSIGIPHGGFPEPLRSRVLKDMPRIEGRPGAELKDLDFDKLKKELQESHTCVTNRDVMSAALYPQVTNDFLNFREKYGPVDKLDTRIFLTGPKVGEEFDVPLERGKTLSVKALAVSADLKPNGIREVFFELNGQLRAVHILDKEAVKEIHVHPKANKSNKSEVGAPMPGTVIDIRVKVGDKVEKGQPLVVLSAMKMEMVVQSPLAGVVKKLEIANGTKLEGEDLIMIIE
protein production: failed

MPPPAAAAGLAGRPGRGAGSRLRPAVAAAGRRAHMIRCRHGGPRLQDIRNTVGNVPLEWYDDFPHVGYDLDGRRIYKPLRTRDELDQFLDKMDDPDYWRTVQDPMTGRDLRLTDEQVALVRRLQSGQFGDVGFNPYEPAVDFFSGDVMIHPVTNRPADKRSFIPSLVEKEKVSRMVHAIKMGWIQPRRPRDPTPSFYDLWAQEDPNAVLGRHKMHVPAPKLALPGHAESYNPPPEYLLSEEERLAWEQQEPGERKLSFLPRKFPSLRAVPAYGRFIQERFERCLDLYLCPRQRKMRVNVDPEDLIPKLPRPRDLQPFPTCQALVYRGHSDLVRCLSVSPGGQWLVSGSDDGSLRLWEVATARCVRTVPVGGVVKSVAWNPSPAVCLVAAAVEDSVLLLNPALGDRLVAGSTDQLLSAFVPPEEPPLQPARWLEASEEERQVGLRLRICHGKPVTQVTWHGRGDYLAVVLATQGHTQVLIHQLSRRRSQSPFRRSHGQVQRVAFHPARPFLLVASQRSVRLYHLLRQELTKKLMPNCKWVSSLAVHPAGDNVICGSYDSKLVWFDLDLSTKPYRMLRHHKKALRAVAFHPRYPLFASGSDDGSVIVCHGMVYNDLLQNPLLVPVKVLKGHVLTRDLGVLDVIFHPTQPWVFSSGADGTVRLFT
protein production: failed

MSNQFIQYLNRAASGSIPGFVIMKLLMLELPNLMGLLLPLGFYVALLLAYGRLYAESEMTVLRACGYGPRQLLKHSFAMATVVLVVVAIVMIWASPVIAVERIKLIRSTGIKTLIQTIMPGRFHAINSGQQIFYVQSMNRDHSQAEQIFMAKHSVQDNRLLWDVLWADKAFAEVNPQTGEEYIVLQNGKEYQGVPGHADYQIAEFASYKSKLPNPTVVMHDDARTAKTRDLWPLNNHDLKKAAELQWRISIPLMVLTLTLVAVPLSRVSPRSGKYSKLLPAIIIYIFYANFMFVSRDAIATGKIPWWIGMWWVHVAVAILGILFIWRNQVKLA
protein production: failed

TLHKERRIGRLSVLLLLNEAEESTQVEELERDGWKVCLGKVGSMDAHKVVAAIETASKKSGVIQSEGYRESHALYHATMEALHGVTRGEMLLGSLLRTVGLRFAVLRGNPYESEAEGDWIAVSLYGTIGAPIKGLEHETFGVGINHI
protein production: not failed

MENNGEMNAQPELSGIIDITKTYMYEKLWNICAGPLCVLPKPGEKVYYFPQGHIELIENSTRDELDHIRPIFDLPSKLRCRVVAIDRKVDKNTDEVYAQISLMPDTTDMSQPISTQNLVAKDLYGQEWSFKHVFRGTPQRHMFTSGGGWSVFATTKRLIVGDIFVLLRGENGELRFGIRRAKHQQGHIPSSVISANCMQHGVIASVVNAFKTKCMFNVVYKPSYDKFVDAMNNNYIVGSRFRMQFEGKDFSEKRYDGTIIGVNDMSPHWKDSEWRSLKVQWDELSPFLRPNQVSPWDIEHLIPSSDISQSSATLSNLWTCQEIGQRSMNSPISVPEFSYPNAIEDSKFLSGLLLNHSLLAIPNENYNSDQMIQPRKEDITTEATTSCLLFGVDLTKVHMQGVAISRAVDLTAMHGYNQLIQKLEELFDLKDELRTRNQWEIVFTNNEGAEMLVGDDPWPEFCNMAKRIFICSKEEIKKMKLKNKFFQPESKALTSSDVPPNVTDN
protein production: failed

SKIYDNKNQLIADLGSERRVNAQANDIPTDLVKAIVSIEDHRFFDHRGIDTIRILGAFLRNLQSNSLQGGSTLTQQLIKLTYFSTSTSDQTISRKAQEAWLAIQLEQKATKQEILTYYINKVYMSNGNYGMQTAAQNYYGKDLNNLSLPQLALLAGMPQAPNQYDPYSHP
protein production: failed

MQSIRSILVVIDPTPGESLALKRAKLIAGVTQAHLHLLVCDRKHEHSALLSVLKSSLTGEGYSVTTEQAWNESLHETIIDVQQAEGCGLVIKQHLPDAPLKKALLTPADWKLLRYCPTPVLLVKTATPWVGGVVMAAIDVGNMDGEHRALHASIVDHGFDIASLAKAQLHVISAHPSPMLSAADPVFQLKETIEARYREQCKAFQAEFDIDDAHLHIEEGPADVLIPHLAHKLGAVLTIIGTVARTGISGALIGNTAEVVLDSLDSDVLVLKPADIMDHLEELAAKA
protein production: not failed

MGKEITENIIDVEFKCNHFKMNGYIGNNNIYRSNKNLQHIYINKRFVKSKIIIDAITESYKSIIPIGKHAVCFLNIEVDPSCIDVNIHPNKLEIKFEKEQEVYIELRDFLKVKLIHSNLIGLEHHHHHH
protein production: failed

LDLQIIMDDLLNLLLKEFKLDLAVIRLVDEKGVLRVRSYSGKGIAGIAGKDWEPEIETYIGEAFLSNRLQFVNDTQYMTKPLTRELMQKEGIKSFAHIPISRKGEPPFGILSVFSRTIVGLFNEPFLNLLESLAGQLAQAVKIVTEMEAKEREREEKERILLENARVVKEMEIAKQIQLSLLPSAPPTLPRH
protein production: failed

MNKFLTTIIIKSKCSLLFISSINDSFIYIIRRMINANWSNFTLSWSIARNYWYYFRKCLDGRPFTVFLTSYQIFSTSFCKGNMFYVISSLIIFIQIMNCFLEHHHHHH
protein production: failed

MWPSCMARFPSDGQPGYRFVPSPGSGAGEEEMRPLVSVVCACFNISKYLDEAIASIYAQGYPNLELIVVDDGSTDDTYERLAMLRERHGFQLYRQANRGVSDALNHGLRHARGEFVMTPDLDDILLPGALDTRVDYLLAHPEVGCVGGFNICIDSAGNEVARDGFSEGCVERWGFDAALAETLVVMPLTALYRMEAMKRADFFDPSIRVQDFQITLRIAAQGYEIHRLPAYMGRYRRHGSGLSGRYKLNYEADMQAIEPYRAHPNYRRARQLILNKALKKAVVQDGRYAWQLFRSVPLRAWDRVTLKRFWRFLRYLPVLGLKGGTGVEGR
protein production: failed
